Target: C-phycocyanin, Q54715;Q54714
Experiment: SPR
Settings: chain shown with the change, 2 µM analyte, 20 µl/min, 25°C, CPC-coated chip, read off a plot

Row | response (parent: est. 53) [RU] | response (parent: est. 57) [RU] | Binder
1 | 35 |  | GST-fused PPC2 domain of metalloprotease E495 F5A (protein) GWTRATQNLDAGYSSLDISMAGGSGDADLYVNFGSASSTSSYECRPYKNGNVETCTIENPQAGTWYIDLQG
2 |  | 33 | GST-fused PPC1 domain of metalloprotease E495 F5A (protein) EQLFATLDVPAGASNLVFNTNGGSGDADLYVRFGSKPTLSTYDCNSTTSTSTESCSIGSAQAGTYYVMVEA
